# ± gives the uncertainty stated by the source.
# Test: amyloid nucleation score (Sup35N fusion, yeast selection) (log enrichment); library NNK2; higher = more nucleation; inactive = no reads after selection
# Method in brief: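 In psi-negative yeast, Sup35N fusions carrying peptides of 20 random codons were induced with 100 μM copper sulfate for 24 hours. The cells then grew 7 days at 30°C on medium lacking adenine and uracil, and plasmid inserts from input and output were Illumina-sequenced, excluding sequences with under 100 input reads. Nucleation score is the DiMSum log enrichment of output over input reads, centred on the mode score of non-aggregating sequences.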
row,Substance,amyloid nucleation score
1,FYMLYYQIAVSCHLCFDILV,inactive
2,FYNIRPETVAKAMKGLGWST,-0.136 ± 0.37
3,FYQGLATILSSSLVPIHRHQ,inactive
4,FYQVNLPSCLNSDDNRCS,inactive
5,FYRGM,-0.547 ± 0.5
6,FYRGSQVMPR,-0.647 ± 1.1
7,FYSCCPWLSLRSAMIYVMIS,1.61 ± 0.22
8,FYSLTDPCICGCH,-0.341 ± 0.79
9,FYTTRMYLVFSYFV,3.29 ± 0.064
10,FYWAKPSHWAPGFINGQDVL,-1.19 ± 0.54
11,FYYNCGWSCNNVTWFSRQFV,3.04 ± 0.12
12,FYYVFYLNSLAVAGHLRILD,inactive
13,GAGHNNLLEDAFTSRSVTAR,0.489 ± 0.28
14,GAIRFK,0.223 ± 0.54
15,GAKIGKMDVLGFDGDGLIYI,1.42 ± 0.1
16,GASVVDKSSRPCGAILEHSG,0.894 ± 0.74
17,GAWFQTYWLWCEYMAFIQKL,1.86 ± 0.17
18,GCHSFLPGYFTWNYDSDNYF,inactive
19,GCMLSRMNTGLSRLGLFFDS,-1.25 ± 0.55
20,GCTGGRIK,-0.088 ± 0.49
21,GCVRIMPCVFGSVRWHWYVW,1.28 ± 0.25
22,GDDDVVVDDQNLKCDGYTDL,1.03 ± 0.24
23,GDKSIRSPLAV,-0.087 ± 0.34
24,GDVCNVLLAYWVFVTLSFSV,1.5 ± 0.58
25,GDVDEWCLTGLGLSNIMVGQ,1.52 ± 0.58
26,GDYSCVHQVRKIDM,0.162 ± 0.18

row,Substance,amyloid nucleation score
1,GEGQNEVATHLYCQLAILPV,0.28 ± 0.46
2,GEKTVLVYMVG,4.9 ± 0.07
3,GENTRSINVSSGMQEQSRKT,0.523 ± 0.38
4,GEQVWCVGCPYVRWNSLHAG,8.756 ± 0.037
5,GESEVLSRRRQFFGRLWVCM,inactive
6,GETVGFKARFMLMHTSFLLR,4.902 ± 0.045
7,GFEWSLSRIDLCSGFGLGAG,1.24 ± 0.29
8,GFHQFPVDVVALGWSILRCF,-0.075 ± 0.31
9,GFLLCVSGVYLGCLLVNSSI,0.488 ± 0.56
10,GFLYR,-1.23 ± 0.3
11,GFMKPSRYLNMVKFNCRLRS,inactive
12,GFNGRALKLERARDLVCGRM,0.386 ± 0.29
13,GFSIVNQDWYS,0.675 ± 0.35
14,GFSSHSSFNHTI,1.37 ± 0.32
15,GFVYYSVMVFLMLAFPYLRH,-1.59 ± 0.64
16,GGALGDFGTHEFNLNAPYSQ,inactive
17,GGDAQACVGHLSHKLCWLSV,1.65 ± 0.16
18,GGDAYGRINAASYARIPRLS,0.902 ± 0.22
19,GGFDYCFIMYHRNELDSGLG,-0.646 ± 0.23
20,GGIRYVSVFQIFASCCFSRV,8.977 ± 0.05
21,GGLAGWSGWNTQDELGCGTT,0.775 ± 0.4
22,GGMGHVFITCWGYVYIDYLV,7.207 ± 0.025
23,GGNTVSHQK,-0.427 ± 1.1
24,GGRMHCARRTRMWVHLDAGM,5.823 ± 0.049
25,GGRRCGFITIRETNRTLLAL,-0.28 ± 0.55
26,GGTIYTLL,-1.01 ± 0.36

row,Substance,amyloid nucleation score
1,GGTNYANLMLALWFVVMIST,-0.295 ± 0.44
2,GGTSAAS,1.01 ± 0.22
3,GGWLYANGEYWWSTG,1.53 ± 0.58
4,GGYDGVSQMCHFEITWNWMT,1.37 ± 0.29
5,GGYDP,inactive
6,GGYICFQMFFYCVFARNY,1.27 ± 0.082
7,GHIQLRTVYGV,1.2 ± 0.68
8,GHLRVFGVAKKLSTIMNLAR,-0.274 ± 0.45
9,GHMLLFTFFR,5.965 ± 0.035
10,GHRNTDRSRREDRTKW,4.82 ± 0.05
11,GHSSFDQTAFSDSAGSLRML,inactive
12,GICPWTRLALFCRSGNVYRG,1.34 ± 0.15
13,GIFISISPPIGESSGNLQLN,inactive
14,GIIDV,-0.441 ± 1.1
15,GILVRRYAWSELMNGED,0.116 ± 0.49
16,GIRVLRTRYSLELCMRCLLW,0.126 ± 0.26
17,GISLGDNIRFYLDCTAAPGA,-0.648 ± 0.42
18,GITYVVHSTRGTYREPEGPW,0.469 ± 0.65
19,GKCRRPMCGGKFGDQGLLRL,3.27 ± 0.11
20,GKFVLFRMMFNLVNYRSVLQ,-0.731 ± 0.25
21,GKGNLQSCYEWKYKKLYVHT,-0.248 ± 0.38
22,GKIRIENGLRGSLGDIRHNI,-0.623 ± 1
23,GKLLLFSSWGRA,0.083 ± 0.44
24,GKNELYQVS,0.774 ± 0.41
25,GKPNGGYSTAK,0.777 ± 0.4
26,GKQTP,-0.711 ± 0.45

row,Substance,amyloid nucleation score
1,GKRLSAFWQVVRSWLHIGGM,5.176 ± 0.035
2,GKVAAGVIGRYTY,-0.477 ± 0.22
3,GLDCIVSINRVQLTSAGLIE,0.382 ± 0.47
4,GLDITIGEA,-0.522 ± 0.63
5,GLEFFLGYGYIAARHWVSGS,1.59 ± 0.13
6,GLIGSERNSRVWRNYQMSCS,2.99 ± 0.11
7,GLIYIRDFSFREKGGCYQGL,-1.29 ± 1.1
8,GLPRMRSRYTYRGKYVCMCM,1.12 ± 0.36
9,GLRSLVHEARCRYKTSTSVK,-0.939 ± 0.55
10,GLSCVFRMRIE,6.266 ± 0.05
11,GLSNLTYDFFPEKPP,-1.45 ± 0.62
12,GLSQILDDVGWICRVFELQR,0.299 ± 0.37
13,GLSRLTRYNNGNITTHSNWH,-0.074 ± 1.1
14,GLTGRPQRLIVWAYDLERLW,-0.09 ± 0.63
15,GLVGEGRACYVKHD,0.861 ± 0.57
16,GMADWNWFFPILFDPMGTGL,-0.357 ± 0.49
17,GMCYGGKFDY,-0.356 ± 0.33
18,GMGSSRGQRSTYYYGDLAYA,0.96 ± 0.21
19,GMICKWAWVSTGGKGVKCRE,0.272 ± 0.43
20,GMKSFR,-1.68 ± 1.1
21,GMLFRWCG,7.56 ± 0.047
22,GMLVELHYGPMY,0.334 ± 0.56
23,GMPFG,0.044 ± 0.28
24,GMPVLV,0.093 ± 0.26
25,GMRGNSYAVSYRDIVVLAPC,-0.007 ± 0.55
26,GMRIFNYKNRDYWMACTAMT,inactive

row,Substance,amyloid nucleation score
1,GMRVMVLFDFLYYRCLENLL,-0.632 ± 1.1
2,GMSITPWHWFGPCISFPDIN,-0.55 ± 0.53
3,GMVAICFYHM,6.05 ± 0.046
4,GMYLVENLLFRAQCRSTHWQ,1.25 ± 0.37
5,GNCPLMPMKFRNRMSHSAFS,0.517 ± 0.4
6,GNGLFSVFYIFYAAGKRSVC,0.394 ± 0.62
7,GNLLLSVITDQL,4.69 ± 0.072
8,GNMISERSKSSVHN,-1.52 ± 1.1
9,GNSIVENFLCSRHQCYVM,8.598 ± 0.046
10,GNTLGRFMVLHT,-0.199 ± 0.8
11,GNVVMN,0.863 ± 0.18
12,GNWSVDGWQYCNRTHKCSYH,2.41 ± 0.059
13,GPFNNRRGQFYSVCIYFLLR,inactive
14,GPRSPAA,0.613 ± 0.34
15,GPSLDLDNVDYIGDSTTYQL,inactive
16,GPVLGEFVEGSGNANGDEQV,-0.107 ± 1
17,GPYFVNYPLKTNSIVLWELA,0.356 ± 0.8
18,GQDITDTFTLNCSRGFTCIR,0.091 ± 0.34
19,GQLGNCLVSAAFLFAFIVLS,4.33 ± 0.075
20,GQSLLLEPSGWVSSDIKMKG,0.153 ± 0.79
21,GQTLTRRKVKGRQRELTSGQ,0.967 ± 0.36
22,GQVRSFCTGEG,-0.677 ± 1

# From the supplement of paper PMC12042874
